Test results: patent publication US20210284709A1 (JUNO THERAPEUTICS, published 2021)
Positions count from the first letter of the chain named.

B1: TCR 46 (codon-optimized, cysteine-modified) (TCR, V domains shown)
V domain 1: AQSVTQLDSQVPVFEEAPVELRCNYSSSVSVYLFWYVQYPNQGLQLLLKYLSGSTLVKGINGFEAEFNKSQTSFHLRKPSVHISDTAEYFCAVSPSSGTYKYIFGTGTRLKVLA
V domain 2: GAGVSQTPSNKVTEKGKYVELRCDPISGHTALYWYRQSLGQGPEFLIYFQGTGAADDSGLPNDRFFAVRPEGSVSTLKIQRTERGDSAVYLCASSLYLGGSETQYFGPGTRLLVLE
B2: TCR 44 (codon-optimized, cysteine-modified) (TCR, V domains shown)
V domain 1: GQNIDQPTEMTATEGAIVQINCTYQTSGFNGLFWYQQHAGEAPTFLSYNVLDGLEEKGRFSSFLSRSKGYSYLLLKELQMKDSASYLCAQYSGGYQKVTFGTGTKLQVIP
V domain 2: DSGVTQTPKHLITATGQRVTLRCSPRSGDLSVYWYQQSLDQGLQFLIQYYNGEERAKGNILERFSAQQFPDLHSELNLSSLELGDSALYFCASSGTPDTQYFGPGTRLTVLE
B3: TCR 39 (codon-optimized, cysteine-modified) (TCR, V domains shown)
V domain 1: GQQLNQSPQSMFIQEGEDVSMNCTSSSIFNTWLWYKQEPGEGPVLLIALYKAGELTSNGRLTAQFGITRKDSFLNISASIPSDVGIYFCAGYSSSNDYKLSFGAGTTVTVRA
V domain 2: EPEVTQTPSHQVTQMGQEVILRCVPISNHLYFYWYRQILGQKVEFLVSFYNNEISEKSEIFDDQFSVERPDGSNFTLKIRSTKLEDSAMYFCASTPRDRGKEAFFGQGTRLTVVE
B4: TCR 55 (codon-optimized, cysteine-modified) (TCR)
TCR alpha: GEDVEQSLFLSVREGDSSVINCTYTDSSSTYLYWYKQEPGAGLQLLTYIFSNMDMKQDQRLTVLLNKKDKHLSLRIADTQTGDSAIYFCAVPSGATNKLIFGTGTLLAVQPNIQNPDPAVYQLRDSKSSDKSVCLFTDFDSQTNVSQSKDSDVYITDKCVLDMRSMDFKSNSAVAWSNKSDFACANAFNNSIIPEDTFFPSPESSCDVKLVEKSFETDTNLNFQNLSVIGFRILLLKVAGFNLLMTLRLWSS
TCR beta: EPEVTQTPSHQVTQMGQEVILRCVPISNHLYFYWYRQILGQKVEFLVSFYNNEISEKSEIFDDQFSVERPDGSNFTLKIRSTKLEDSAMYFCASTTRSSYEQYFGPGTRLTVTEDLKNVFPPEVAVFEPSEAEISHTQKATLVCLATGFYPDHVELSWWVNGKEVHSGVCTDPQPLKEQPALNDSRYCLSSRLRVSATFWQNPRNHFRCQVQFYGLSENDEWTQDRAKPVTQIVSAEAWGRADCGFTSESYQQGVLSATILYEILLGKATLYAVLVSALVLMAMVKRKDSRG
B5: TCR 50 (codon-optimized, cysteine-modified) (TCR, V domains shown)
V domain 1: GEDVEQSLFLSVREGDSSVINCTYTDSSSTYLYWYKQEPGAGLQLLTYIFSNMDMKQDQRLTVLLNKKDKHLSLRIADTQTGDSAIYFCAESPPGTYKYIFGTGTRLKVLA
V domain 2: DSGVTQTPKHLITATGQRVTLRCSPRSGDLSVYWYQQSLDQGLQFLIHYYNGEERAKGNILERFSAQQFPDLHSELNLSSLELGDSALYFCASSATRDAYGYTFGSGTRLTVVE
B6: TCR 43 (codon-optimized, cysteine-modified) (TCR, V domains shown)
V domain 1: QKEVEQNSGPLSVPEGAIASLNCTYSDRGSQSFFWYRQYSGKSPELIMFIYSNGDKEDGRFTAQLNKASQYVSLLIRDSQPSDSATYLCAVNVPTSGTYKYIFGTGTRLKVLA
V domain 2: EPEVTQTPSHQVTQMGQEVILRCVPISNHLYFYWYRQILGQKVEFLVSFYNNEISEKSEIFDDQFSVERPDGSNFTLKIRSTKLEDSAMYFCASTPRDSYEQYFGPGTRLTVTE
B7: TCR 47 (codon-optimized, cysteine-modified) (TCR, V domains shown)
V domain 1: QKEVEQNSGPLSVPEGAIASLNCTYSDRGSQSFFWYRQYSGKSPELIMFIYSNGDKEDGRFTAQLNKASQYVSLLIRDSQPSDSATYLCAVNLLSGSARQLTFGSGTQLTVLP
V domain 2: B6 V domain 2 with S94M, P96G, D98T, S99T
B8: TCR 51 (codon-optimized, cysteine-modified) (TCR, V domains shown)
V domain 1: QKEVEQNSGPLSVPEGAIASLNCTYSDRGSQSFFWYRQYSGKSPELIMSIYSNGDKEDGRFTAQLNKASQYVSLLIRDSQPSDSATYLCAVNMRGGGSNYKLTFGKGTLLTVNP
V domain 2: B6 V domain 2 with S94I, T95A, P96S, D98V
B9: TCR 36 (codon-optimized, cysteine-modified) (TCR, V domains shown)
V domain 1: RKEVEQDPGPFNVPEGATVAFNCTYSNSASQSFFWYRQDCRKEPKLLMSVYSSGNEDGRFTAQLNRASQYISLLIRDSKLSDSATYLCVVNRDNYGQNFVFGPGTRLSVLP
V domain 2: B6 V domain 2 with S94M, P96G, D98S, S99N
B10: TCR 40 (codon-optimized, cysteine-modified) (TCR, V domains shown)
V domain 1: GQQVMQIPQYQHVQEGEDFTTYCNSSTTLSNIQWYKQRPGGHPVFLIQLVKSGEVKKQKRLTFQFGEAKKNSSLHITATQTTDVGTYFCAGRNNFNKFYFGSGTKLNVKP
V domain 2: B6 V domain 2 with S94I, P96A, D98S
B11: TCR 48 (codon-optimized, cysteine-modified) (TCR, V domains shown)
V domain 1: QKEVEQDPGPLSVPEGAIVSLNCTYSNSAFQYFMWYRQYSRKGPELLMYTYSSGNKEDGRFTAQVDKSSKYISLFIRDSQPSDSATYLCAMRIQGAQKLVFGQGTRLTINP
V domain 2: B6 V domain 2 with P96G, D98V
B12: TCR 42 (codon-optimized, cysteine-modified) (TCR, V domains shown)
V domain 1: B10 V domain 1 with R92P, N93D
V domain 2: B6 V domain 2 with S94K, P96S, D98S
B13: TCR 49 (codon-optimized, cysteine-modified) (TCR, V domains shown)
V domain 1: B6 V domain 1 with V93I, P94G
V domain 2: B6 V domain 2 with D98Y
B14: TCR 33 (codon-optimized, cysteine-modified) (TCR, V domains shown)
V domain 1: B6 V domain 1 with V93A, P94H, T95H, S96T, T98G, Y99F, Y101T, T105A, K110F, L112K
V domain 2: B6 V domain 2 with S99T
B15: TCR 31 (codon-optimized, cysteine-modified) (TCR, V domains shown)
V domain 1: DQQVKQNSPSLSVQEGRISILNCDYTNSMFDYFLWYKKYPAEGPTFLISISSIKDKNEDGRFTVFLNKSAKHLSLHIVPSQPGDSAVYFCAASERGTYKYIFGTGTRLKVLA
V domain 2: GAGVSQSPSNKVTEKGKDVELRCDPISGHTALYWYRQSLGQGLEFLIYFQGNSAPDKSGLPSDRFSAERTGGSVSTLTIQRTQQEDSAVYLCASSRFLGSTDTQYFGPGTRLTVLE
B16: TCR 53 (codon-optimized, cysteine-modified) (TCR, V domains shown)
V domain 1: AQSVAQPEDQVNVAEGNPLTVKCTYSVSGNPYLFWYVQYPNRGLQFLLKYITGDNLVKGSYGFEAEFNKSQTSFHLKKPSALVSDSALYFCAVRDFGSGTYKYIFG
V domain 2: GAGVSQSPRYKVTKRGQDVALRCDPISGHVSLYWYRQALGQGPEFLTYFNYEAQQDKSGLPNDRFSAERPEGSISTLTIQRTEQRDSAMYRCASSGSGTSGYNEQFFGPGTRLTVLE
B17: TCR 41 (codon-optimized, cysteine-modified) (TCR, V domains shown)
V domain 1: RKEVEQDPGPFNVPEGATVAFNCTYSNSASQSFFWYRQDCRKEPKLLMSVYSSGNEDGRFTAQLNRASQYISLLIRDSKLSDSATYLCVVTFALTGGFKTIFGAGTRLFVKA
V domain 2: EPEVTQTPSHQVTQMGQEVILRCVPISNHLYFYWYRQILGQKVEFLVSFYNNEISEKSEIFDDQFSVERPDGSNFTLKIRSTKLEDSAMYFCASNPRDRVSYEQYFGPGTRLTVTE
B18: TCR 34 (codon-optimized, cysteine-modified) (TCR, V domains shown)
V domain 1: ELKVEQNPLFLSMQEGKNYTIYCNYSTTSDRLYWYRQDPGKSLESLFVLLSNGAVKQEGRLMASLDTKARLSTLHITAAVHDLSATYFCAVSGTYKYIFGTGTRLKVLA
V domain 2: ETGVTQSPTHLIKTRGQQVTLRCSSQSGHNTVSWYQQALGQGPQFIFQYYREEENGRGNFPPRFSGLQFPNYSSELNVNALELDDSALYLCASSSYAGSYEQYFGPGTRLTVTE
B19: TCR 35 (codon-optimized, cysteine-modified) (TCR, V domains shown)
V domain 1: KDQVFQPSTVASSEGAVVEIFCNHSVSNAYNFFWYLHFPGCAPRLLVKGSKPSQQGRYNMTYERFSSSLLILQVREADAAVYYCAVAGDYKLSFGAGTTVTVRA
V domain 2: DSGVTQTPKHLITATGQRVTLRCSPRSGDLSVYWYQQSLDQGLQFLIQYYNGEERAKGNILERFSAQQFPDLHSELNLSSLELGDSALYFCASTTSGDSSYNEQFFGPGTRLTVLE
B20: TCR 45 (codon-optimized, cysteine-modified) (TCR, V domains shown)
V domain 1: GQQVMQIPQYQHVQEGEDFTTYCNSSTTLSNIQWYKQRPGGHPVFLIQLVKSGEVKKQKRLTFQFGEAKKNSSLHITATQTTDVGTYFCAGSSGAGSYQLTFGKGTKLSVIP
V domain 2: GAGVSQSPSNKVTEKGKDVELRCDPISGHTALYWYRQRLGQGLEFLIYFQGNSAPDKSGLPSDRFSAERTGESVSTLTIQRTQQEDSAVYLCASSLYLGTTGELFFGEGSRLTVLE
B21: TCR 37 (codon-optimized, cysteine-modified) (TCR, V domains shown)
V domain 1: ELKVEQNPLFLSMQEGKNYTIYCNYSTTSDRLYWYRQDPGKSLESLFVLLSNGAVKQEGRLMASLDTKARLSTLHITAAVHDLSATYFCAGYSGAGSYQLTFGKGTKLSVIP
V domain 2: GAGVSQSPRYKVAKRGQDVALRCDPISGHVSLFWYQQALGQGPEFLTYFQNEAQLDKSGLPSDRFFAERPEGSVSTLKIQRTQQEDSAVYLCASSLLLGAYGYTFGSGTRLTVVE

The binders below were run against T1, HLA-A2/E7(11-19) tetramer (human; HPV 16) (assay: flow cytometry, tetramer + anti-CD8; transfected mix of CD8- and CD8+ Jurkat-derived cells;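 further: cells transiently transfected with TCR-encoding plasmids, analysed 48 h afterwards by co-staining with HLA-A*02:01 peptide tetramer and anti-CD8 antibody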).
T1 construct: also called E7(11-19) peptide-MHC tetramer; E7 tet
Procedure: For transfection, the CD4+ and CD4+/CD8+ cell mixtures were transiently transfected with TCR-encoding plasmids and 48 hours after transfection, cells were assessed by flow cytometry for (1) binding of the target peptide in the context of an MHC molecule (HLA:A02:01) by staining with an E6(29-38) peptide- or an E7(11-19) peptide-MHC tetramer reagent, and/or (2) CD8+ independent binding of the target by co-staining the tetramer-labeled cells with an anti-CD8 antibody.
In the case of B1, the “% cells E7 tet+/CD8+ quadrant” value is reported as 1.27% and the “% cells E7 tet+/CD8- quadrant” value is reported as 1.21%. B2 was tested, and the “% cells E7 tet+/CD8+ quadrant” value was 2.96% and the “% cells E7 tet+/CD8- quadrant” value was 1.43%. For B3, the “% cells E7 tet+/CD8+ quadrant” value was 12.3% and the “% cells E7 tet+/CD8- quadrant” value was 2.61%. For B4, the “% cells E7 tet+/CD8+ quadrant” value was 1.45% and the “% cells E7 tet+/CD8- quadrant” value was 0.28%. For B5, the “% cells E7 tet+/CD8+ quadrant” value was 3.28% and the “% cells E7 tet+/CD8- quadrant” value was 0.25%. For B6, the “% cells E7 tet+/CD8+ quadrant” value was 3.82% and the “% cells E7 tet+/CD8- quadrant” value was 1.88%. For B7, the “% cells E7 tet+/CD8+ quadrant” value was 1.98% and the “% cells E7 tet+/CD8- quadrant” value was 0.71%. B8 was tested, and the “% cells E7 tet+/CD8+ quadrant” value was 5.7% and the “% cells E7 tet+/CD8- quadrant” value was 2.06%. For B9, the “% cells E7 tet+/CD8+ quadrant” value was 23.4% and the “% cells E7 tet+/CD8- quadrant” value was 16.7%. For B10, the “% cells E7 tet+/CD8+ quadrant” value was 7.84% and the “% cells E7 tet+/CD8- quadrant” value was 1.37%. With B11 the “% cells E7 tet+/CD8+ quadrant” value was 5.36% and the “% cells E7 tet+/CD8- quadrant” value was 1.29%. B12 was tested, and the “% cells E7 tet+/CD8+ quadrant” value was 1.21% and the “% cells E7 tet+/CD8- quadrant” value was 1.65%. With B13 the “% cells E7 tet+/CD8+ quadrant” value was 5.54% and the “% cells E7 tet+/CD8- quadrant” value was 3.06%. With B14 the “% cells E7 tet+/CD8+ quadrant” value was 22.6% and the “% cells E7 tet+/CD8- quadrant” value was 14%. In the case of B15, the “% cells E7 tet+/CD8+ quadrant” value is reported as 4.52% and the “% cells E7 tet+/CD8- quadrant” value is reported as 0.042%. B16 was tested, and the “% cells E7 tet+/CD8+ quadrant” value was 3.35% and the “% cells E7 tet+/CD8- quadrant” value was 0.43%. With B17 the “% cells E7 tet+/CD8+ quadrant” value was 6.07% and the “% cells E7 tet+/CD8- quadrant” value was 2.41%. In the case of B18, the “% cells E7 tet+/CD8+ quadrant” value is reported as 26.3% and the “% cells E7 tet+/CD8- quadrant” value is reported as 26%. B19 was tested, and the “% cells E7 tet+/CD8+ quadrant” value was 14.5% and the “% cells E7 tet+/CD8- quadrant” value was 7.18%. B20 was tested, and the “% cells E7 tet+/CD8+ quadrant” value was 22.4% and the “% cells E7 tet+/CD8- quadrant” value was 16.9%. With B21 the “% cells E7 tet+/CD8+ quadrant” value was 25.5% and the “% cells E7 tet+/CD8- quadrant” value was 19.5%.
